Measured values published in PMC9396614.

Target: Arctic mutant (E22G) amyloid-β 1-42 peptide (human)

reduction of the nucleation units generated during Aβ42^arc fibrillization, calculated from the fitted ThT kinetics, with monomeric rh Bri2 BRICHOS up to an equal ratio: 80%
Substance: recombinant human Bri2 BRICHOS domain, monomer (domain or fragment)
